In patent US20220119513A1 (ZOETIS SERVICES, published 2022):
Blank lines part the entries; values can stand above or below the binder they belong to.

Experiments:
TGFβ3 (R&D Systems) [1] = biological target: T1, TGFβ3 (R&D Systems) (Homo sapiens (Human), UniProt P10600 301-412, Active TGFβ3 is a disulfide-linked homodimer of this chain; one copy is given.); assay: SPR, TGFβ on chip
T1 construct: also called TGFB3
T1 sequence: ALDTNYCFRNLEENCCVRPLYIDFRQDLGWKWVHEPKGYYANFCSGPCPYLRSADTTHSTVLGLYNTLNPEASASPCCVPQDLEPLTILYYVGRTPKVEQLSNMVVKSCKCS

TGFβ2 (R&D Systems) [2] = biological target: T2, TGFβ2 (R&D Systems); assay: SPR, TGFβ on chip
T2 construct: also called TGFB2
T2 sequence (P61812 303-414, species assumed, looked up): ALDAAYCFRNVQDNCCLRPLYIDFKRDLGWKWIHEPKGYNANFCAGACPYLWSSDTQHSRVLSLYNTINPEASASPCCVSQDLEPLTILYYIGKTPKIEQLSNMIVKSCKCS

TGFβ1 (R&D Systems) [3] = biological target: T3, TGFβ1 (R&D Systems); assay: SPR, TGFβ on chip
T3 construct: also called TGFB1

human TGFβ1 (PeproTech) = human TGFβ1 (PeproTech) (human, UniProt P01137 279-390); assay: HDX-MS epitope mapping, TGFβ1 with and without mAb
Description: Hydrogen Deuterium Exchange (HDX) experiments were used to determine the epitopes on TGFβ1 to which each antibody series binds. This method establishes the peptide level epitope on TGFβ1 targeted by each mAb by HDX mass spectrometry. For each mAb analysis, TGFβ1 is incubated in deuterium oxide in the presence and absence of mAb, is digested, and fragments are then analyzed and compared for hydrogen/deuterium exchange via mass spectrometry.
More specifically, the method was carried out as follows: One milligram of TGFβ1 was reconstituted in 500 μL control buffer (50 mM phosphate, 100 mM sodium chloride at pH 7.4). […] The mass spectra were recorded in MS only mode.
For pepsin digestion, 10 μg of human TGFβ1 in 80 μL control buffer (50 mM phosphate, 100 mM sodium chloride at pH 7.4) was denatured by adding 160 μL of 8 M urea, 0.85 M TCEP buffer (final pH is 4.0) and incubating the mixture for 3 min at 6° C. Then, the mixture was subjected to pepsin digestion using an-house packed pepsin column (2.1×30 mm) at 11° C. and the resultant peptides was analyzed using a UPLC-MS system comprised of a Waters Acquity UPLC coupled to a Q Exactive™ Hybrid Quadrupole-Orbitrap Mass Spectrometer (Thermo). […]

TGFβ1 (R&D Systems) [4] = biological target: T3, TGFβ1 (R&D Systems); assay: cell-based or functional assay
TGFβ3 (R&D Systems) [5] = biological target: T1, TGFβ3 (R&D Systems); assay: cell-based or functional assay
TGFβ2 (R&D Systems) [6] = biological target: T2, TGFβ2 (R&D Systems); assay: cell-based or functional assay
TGFβ1 (R&D Systems) [7] = biological target: T3, TGFβ1 (R&D Systems); assay: cell-based or functional assay; remark: listed apart in the source
TGFβ3 (R&D Systems) [8] = biological target: T1, TGFβ3 (R&D Systems); assay: SPR full titration
TGFβ2 (R&D Systems) [9] = biological target: T2, TGFβ2 (R&D Systems); assay: SPR full titration
TGFβ1 (R&D Systems) [10] = biological target: T3, TGFβ1 (R&D Systems); assay: SPR full titration
TGFβ1 (R&D Systems) [11] = biological target: T3, TGFβ1 (R&D Systems); assay: SPR
canine TGFβ2 = biological target: T4, canine TGFβ2 (canine, UniProt A0A8I3PZZ6 331-442); assay: SPR, TGFβ on chip
T4 sequence: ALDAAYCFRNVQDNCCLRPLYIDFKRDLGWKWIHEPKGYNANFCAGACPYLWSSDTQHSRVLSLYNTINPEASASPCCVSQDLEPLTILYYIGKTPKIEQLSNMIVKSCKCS

canine TGFβ1 = canine TGFβ1 (canine, UniProt P54831 279-390, limits assumed); assay: SPR, TGFβ on chip
canine TGFβ3 = biological target: T5, canine TGFβ3 (canine, UniProt A0A8I3S1P1 346-457); assay: SPR, TGFβ on chip
T5 sequence: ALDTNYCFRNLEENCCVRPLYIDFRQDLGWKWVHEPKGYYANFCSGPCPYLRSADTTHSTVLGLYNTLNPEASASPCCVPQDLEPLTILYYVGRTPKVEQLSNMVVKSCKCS

TGFβ3 (R&D Systems) [12] = biological target: T1, TGFβ3 (R&D Systems); assay: cell-based or functional assay; remark: listed apart in the source
TGFβ1 (R&D Systems) [13] = biological target: T3, TGFβ1 (R&D Systems); assay: cell-based or functional assay; remark: listed apart in the source

T3 sequence (P01137 279-390): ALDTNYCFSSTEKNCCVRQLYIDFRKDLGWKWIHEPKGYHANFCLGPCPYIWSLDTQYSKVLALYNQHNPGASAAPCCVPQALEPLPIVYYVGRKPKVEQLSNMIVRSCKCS
Sequence of canine TGFβ1 (P54831 279-390 limits assumed): as the sequence (P01137 279-390) above
Sequence of human TGFβ1 (PeproTech) (P01137 279-390 limits assumed): as the sequence (P01137 279-390) above

B1: 04H09 (mouse) (antibody, V domains shown)
VH: QVQLQQSGAELVKPGASVKISCKASGYAFSSSWMNWVKQRPGKGLEWIGQIYPGDGDTNYNGKFKGKATLTADKSSSTAYMQLSSLTSEDSAVYFCARHYDGSTDYWGQGTTLTVSS
VL: DIQMTQSPASLSVSVGETVTITCRASENIYSNLAWYQQKQGKSPQLLVYAATNLADGVPSRFSGSGSGTQYSLKINSLQSEDFGSYYCQHFWGTPYTFGGGTKLEIK
notes: mouse IgG, kappa, purified from hybridoma; also called mouse 04H09 monoclonal antibody; 04H09 (murine)
Kd (TGFβ3 (R&D Systems) [1]): 1.26 nM | Kd (TGFβ2 (R&D Systems) [2]): 7.13 nM | Kd (TGFβ1 (R&D Systems) [3]): 0.0443 nM | binding result (human TGFβ1 (PeproTech)): binds | CMVIC pSmad-3, IC50 (TGFβ1 (R&D Systems) [4]): 4.66 nM

B4: Can04H09 VH1/VL4 (antibody, V domains shown)
VH: EVQLVQSGAEVKKPGASVKVSCKTSGYTFISSWMNWVRQAPGAGLDWMGQIYPGDGDTNYNGKFKGRVTLTADTSTSTAYMELSSLRAGDIAVYYCARHYDGSTDYWGQGTLVTVSS
VL: EIVMTQSPASLSLSQGEKVTITCRASENIYSNLAWYQQRPGQAPKLLIYAATNLADGVPSRFSGSGSGTDFSLTISSLEPEDVAVYYCQHFWGTPYTFGQGTK
Kd (canine TGFβ2): 29.7 nM | Kd (canine TGFβ1): 2.18 nM | Kd (canine TGFβ3): 4.78 nM | CMVIC pSmad-3, IC50 (TGFβ3 (R&D Systems) [12]): 136 nM | CMVIC pSmad-3, IC50 (TGFβ1 (R&D Systems) [4]): 0.88 nM | IC50 (read off the curve), inhibition of TGFβ1-induced SMAD3 signalling [panel TGFβ1] (TGFβ1 (R&D Systems) [13]): ~0.2 µg/mL

More lines, now with the values ahead:

pSmad-3, IC50 (TGFβ3 (R&D Systems) [5]): 1.11 nM | pSmad-3, IC50 (TGFβ2 (R&D Systems) [6]): 11 nM | pSmad-3, IC50 (TGFβ1 (R&D Systems) [7]): 1.52 nM | Kd (TGFβ3 (R&D Systems) [8]): 0.223 nM | Kd (TGFβ2 (R&D Systems) [9]): 0.586 nM | Kd (TGFβ1 (R&D Systems) [10]): 5.05 nM
B2: mHcLb (antibody, V domains shown)
VH: QVQLEESGPELVRPGASVKLSCKASGYIFITYWMNWVKQRPGQGLEWIGQIFPASGSTNYNEMFEGKATLTVDTSSSTAYMQLSSLTSEDSAVYYCARGDGNYALDAMDYWGQGT
VL: DIVLTQTPASLAVSLGQRATISCRASESVDSYGNSFMHWYQQKSGQPPKLLIYLASNLESGVPARFSGSGSRTDFTLTIDPVEADDAATYYCQQNNEDPLTFGAGTK
notes: murine antibody; also called 1D11; mHcLb (murine)

Kd (TGFβ1 (R&D Systems) [11]): 263000 nM
B3: felHclb 1-1YMN (antibody, V domains shown)
VH: QVLLVQSGAEVRTPGASVKIFCKASGYIFITYYMNWVRQSPAQGLEWMGSIFPASGSTSYAQKFQGRLTLTADTSTNTAYMELSSLRSADTAMYYCARGDGNYALDAMDYWGQGTSVTVSS
VL: EIQMTQSPSSLSASPGDRVTITCRASESVDSYGNSFMHWYQQKPGKVPKLLIYLASNLESGVPSRFSGSGSGTDFTLTISSLEPEDAATYYCQQNNEDPLTFGAGT
notes: also called felHclbH1-1YMN/felHclbK1-1; felHcLb-H1-1MN
